Experiments:
[1] = test system: anti-BPDE-DNA monoclonal antibody 8E11 (Mus musculus); conditions: single (+/-)-anti-BPDE-N2-dG adduct in the SEQ:5 segment; CE/LIF; complex formation with native duplex, 20 ug/mL (printed mg/mL) 8E11
[2] = test system: anti-BPDE-DNA monoclonal antibody 5D11 (Mus musculus); conditions: slight cross-reaction at 20 ug/mL 5D11

Sequence	binding signal (fold lower than denatured) [1]	binding signal (% of total peak area) [2]
CCTTAAGCTTCCTCAACCACTTACCATACTCGAGATTCCCATTATGCATAACCGTCATATGCCGCCTCTGACCTTCCTAGAATTCCATCC (double strand) [TMR-BPDE-90-mer, native duplex]	6	
CCTTAAGCTTCCTCAACCACTTACCATACTCGAGATTCCCATTATGCATAACCGTCATATGCCGCCTCTGACCTTCCTAGAATTCCATCC [TMR control 90-mer (no BPDE), heat-denatured]		2.1
